B1: Rtt102, subunit of RSC (natural protein)
chain: MDPQTLITKANKVSYYGNPTSKESWRYDWYQPSKVSSNVQQPQQQLGDMENNLEKYPFRYKTWLRNQEDEKNLQRESCEDILDLKEFDRRILKKSLMTSHTKGDTSKATGAPSANQGDEALSVDDIRGAVGNSEAIPGLSAGVNNDNTKESKDVKMN
B2: Arp7, actin-related protein, subunit of RSC (natural protein)
chain: MTLNRKCVVIHNGSHRTVAGFSNVELPQCIIPSSYIKRTDEGGEAEFIFGTYNMIDAAAEKRNGDEVYTLVDSQGLPYNWDALEMQWRYLYDTQLKVSPEELPLVITMPATNGKPDMAILERYYELAFDKLNVPVFQIVIEPLAIALSMGKSSAFVIDIGASGCNVTPIIDGIVVKNAVVRSKFGGDFLDFQVHERLAPLIKEENDMENMADEQKRSTDVWYEASTWIQQFKSTMLQVSEKDLFELERYYKEQADIYAKQQEQLKQMDQQLQYTALTGSPNNPLVQKKNFLFKPLNKTLTLDLKECYQFAEYLFKPQLISDKFSPEDGLGPLMAKSVKKAGASINSMKANTSTNPNGLGTSHINTNVGDNNSTASSSNISPEQVYSLLLTNVIITGSTSLIEGMEQRIIKELSIRFPQYKLTTFANQVMMDRKIQGWLGALTMANLPSWSLGKWYSKEDYETLKRDRKQSQATNATN
B3: Rsc8, subunit of RSC (natural protein)
chain: MSDTEKDKDVPMVDSHEATEEPPTTSTNTPSFPHLAQEQAKEESATLGAEVAHKKINYEQEAQKLEEKALRFLAKQTHPVIIPSFASWFDISKIHEIEKRSNPDFFNDSSRFKTPKAYKDTRNFIINTYRLSPYEYLTITAVRRNVAMDVASIVKIHAFLEKWGLINYQIDPRTKPSLIGPSFTGHFQVVLDTPQGLKPFLPENVIKQEVEGGDGAEPQVKKEFPVNLTIKKNVYDSAQDFNALQDESRNSRQIHKVYICHTCGNESINVRYHNLRARDTNLCSRCFQEGHFGANFQSSDFIRLENNGNSVKKNWSDQEMLLLLEGIEMYEDQWEKIADHVGGHKRVEDCIEKFLSLPIEDNYIREVVGSTLNGKGGDSRDGSVSGSKLMECVNDAVQTLLQGDDKLGKVSDKSREISEKYIEESQAIIQELVKLTMEKLESKFTKLCDLETQLEMEKLKYVKESEKMLNDRLSLSKQILDLNKSLEELNVSKKLVLISEQVDSGIQLVEKDQEGDDEDGNTATGHGVKRVGKEGEEVGEGDSIAKLQPQVYKPWSL
B4: Rsc6, subunit of RSC (natural protein)
chain: MVTQTNPVPVTYPTDAYIPTYLPDDKVSNLADLKKLIEMDSRLDLYLTRRRLDTSINLPTNTKTKDHPPNKEMLRIYVYNTTESSPRSDSGTPADSGKTTWTLRIEGKLLHESANGKHPFSEFLEGVAVDFKRLKPLGMGKKRKRDSSLSLPLNLQQPEYNDQDSTMGDNDNGEDEDSAEAESREEIVDALEWNYDENNVVEFDGIDIKRQGKDNLRCSITIQLRGVDGGKVQYSPNLATLIGMQTGSVNDAVYSIYKYILINNLFVTEQTEAQDGSNDAEDSSNENNNKNGAGDDDGVEGSTPKDKPELGEVKLDSLLQKVLDTNAAHLPLMNVVQTVNKLVSPLPPIILDYTIDLSKDTTYGATTLDVDVSHILHQPQPQPNLQKEEETDAEDTAKLREITKLALQLNSSAQKYQFFHELSLHPRETLTHYLWSSKQNELVLQGDQYFNEDAARTSDIYSNNNNDRSLMGNISLLYSQGRL
B5: Arp9, actin-related protein, subunit of RSC (natural protein)
chain: MAPFRQDSILIIYPRSQTTLVQFGLNEETFTVPELEIPTQIYRTTRQDGSYTYHSTNKDNKAELIKPIQNGEIIDISAFTQFLRLIFVSILSDRANKNQDAFEAELSNIPLLLITHHSWSQSDLEIITQYVFESLEINNLIQLPASLAATYSMISLQNCCIIDVGTHHTDIIPIVDYAQLDHLVSSIPMGGQSINDSLKKLLPQWDDDQIESLKKSPIFEVLSDDAKKLSSFDFGNENEDEDEGTLNVAEIITSGRDTREVLEERERGQKVKNVKNSDLEFNTFWDEKGNEIKVGKQRFQGCNNLIKNISNRVGLTLDNIDDINKAKAVWENIIIVGGTTSISGFKEALLGQLLKDHLIIEPEEEKSKREEEAKSVLPAATKKKSKFMTNSTAFVPTIEYVQCPTVIKLAKYPDYFPEWKKSGYSEIIFLGAQIVSKQIFTHPKDTFYITREKYNMKGPAALWDVQF
B6: Sth1, ATPase subunit of RSC (enzyme)
chain: MLQEQSELMSTVMNNTPTTVAALAAVAAASETNGKLGSEEQPEITIPKPRSSAQLEQLLYRYRAIQNHPKENKLEIKAIEDTFRNISRDQDIYETKLDTLRKSIDKGFQYDEDLLNKHLVALQLLEKDTDVPDYFLDLPDTKNDNTTAIEVDYSEKKPIKISADFNAKAKSLGLESKFSNATKTALGDPDTEIRISARISNRINELERLPANLGTYSLDDCLEFITKDDLSSRMDTFKIKALVELKSLKLLTKQKSIRQKLINNVASQAHHNIPYLRDSPFTAAAQRSVQIRSKVIVPQTVRLAEELERQQLLEKRKKERNLHLQKINSIIDFIKERQSEQWSRQERCFQFGRLGASLHNQMEKDEQKRIERTAKQRLAALKSNDEEAYLKLLDQTKDTRITQLLRQTNSFLDSLSEAVRAQQNEAKILHGEEVQPITDEEREKTDYYEVAHRIKEKIDKQPSILVGGTLKEYQLRGLEWMVSLYNNHLNGILADEMGLGKTIQSISLITYLYEVKKDIGPFLVIVPLSTITNWTLEFEKWAPSLNTIIYKGTPNQRHSLQHQIRVGNFDVLLTTYEYIIKDKSLLSKHDWAHMIIDEGHRMKNAQSKLSFTISHYYRTRNRLILTGTPLQNNLPELWALLNFVLPKIFNSAKTFEDWFNTPFANTGTQEKLELTEEETLLIIRRLHKVLRPFLLRRLKKEVEKDLPDKVEKVIKCKLSGLQQQLYQQMLKHNALFVGAGTEGATKGGIKGLNNKIMQLRKICNHPFVFDEVEGVVNPSRGNSDLLFRVAGKFELLDRVLPKFKASGHRVLMFFQMTQVMDIMEDFLRMKDLKYMRLDGSTKTEERTEMLNAFNAPDSDYFCFLLSTRAGGLGLNLQTADTVIIFDTDWNPHQDLQAQDRAHRIGQKNEVRILRLITTDSVEEVILERAMQKLDIDGKVIQAGKFDNKSTAEEQEAFLRRLIESETNRDDDDKAELDDDELNDTLARSADEKILFDKIDKERMNQERADAKAQGLRVPPPRLIQLDELPKVFREDIEEHFKKEDSEPLGRIRQKKRVYYDDGLTEEQFLEAVEDDNMSLEDAIKKRREARERRRLRQNGTKENEIETLENTPEASETSLIENNSFTAAVDEETNADKETTASRSKRRSSRKKRTISIVTAEDKENTQEESTSQENGGAKVEEEVKSSSVEIINGSESKKKKPKLTVKIKLNKTTVLENNDGKRAEEKPESKSPAKKTAAKKTKTKSKSLGIFPTVEKLVEEMREQLDEVDSHPRTSIFEKLPSKRDYPDYFKVIEKPMAIDIILKNCKNGTYKTLEEVRQALQTMFENARFYNEEGSWVYVDADKLNEFTDEWFKEHSS
B7: Sfh1, subunit of RSC (natural protein)
chain: MSHQNQLIPQAYISNFHNRLTNEDDGIPIFTMAQQTRQHKRAKVVNYAEYDNDLFDEFNMNGSNFNNADTHYKDNAVSHENTPALTNGVTMDGSEYNVLENMNGADSIISNNKYDAGSNMVVESLSGLNSNNNASNGPSNKAQAQDIGNAVLPDLQDQHHNPFNILRYPKIRDTFINGKVVSPYRLNTDQETKANANSGEAIMIPITLDIEHMGHTIKDQFLWNYNDDSISPEEFASIYCKDLDMTSATLQTQIANIIKEQLKDLENIAATEIMSDLHVIINLTCNLQDRFFEDNFQWNLNDKSLTPERFATSIVQDLGLTREFIPLISQSLHETILKIKKDWVDGHLIQDHVPNDAAFGYLSGIRLDIDELGSNWCPRVEILTKEEIQKREIEKERNLRRLKRETDRLSRRGRRRLDDLETTMRM

Holding throughout (assay): cryo-EM structure
In series [1] the target is B6.
The series “cryo-EM structure” concerns the molecule itself.
In the series “Rsc8, subunit of RSC” the target is B3.
For series [2], the target named is histone H4 (Xenopus laevis) (Xenopus laevis, UniProt P62799 2-103).

The results in this text go back to article doi:10.1101/800508 (bioRxiv, 2019).

Regarding B1, the binding result in series [1] is “binds”.
As for B2, the binding result in series [1] is reported as “binds”.
With B3, the “stoichiometry N” value in the series “cryo-EM structure” came out at 2.
Take B4: in the series with Rsc8, subunit of RSC, the binding result is “binds”.
For B5, the binding result in series [1] is given as “binds”.
On to B6, for which the binding result in series [2] is on record as “binds”.
Take B7: the binding result in the series with Rsc8, subunit of RSC is on record as “binds”.
